In patent US20250109212A1 (BIOSION, published 2025):
Where a chain is given by its changes, count along the chain named.

T1: cynomolgus CD40-his protein (Biosion in house made) (cynomolgus, UniProt P25942 21-191 (human entry), limits assumed)
T1 construct: also called Cyno CD40-his
T1 chain: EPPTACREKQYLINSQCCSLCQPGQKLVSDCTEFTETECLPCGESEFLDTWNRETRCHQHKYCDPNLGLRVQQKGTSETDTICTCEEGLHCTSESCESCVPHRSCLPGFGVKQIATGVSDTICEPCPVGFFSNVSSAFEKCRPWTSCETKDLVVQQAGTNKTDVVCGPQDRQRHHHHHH

B1: HuCD40-C1H1-V2 (antibody, human IgG2, kappa, V domains shown)
VH: EVQLVESGGGLVKPGGSLRLSCAASGFTFSNYGISWVRQAPGKGLEWVSSISSGGDNTYYPDNVKGRFTISRDNAKNSLYLQMNSLRAEDTAVYYCARAGEKAMDYWGQGTLVTVSS
VL: EIVLTQSPATLSLSPGERATLSCRASQTINNNLHWYQQKPGQAPRLLIKYASQSISGIPARFSGSGSGTDFTLTISSLEPEDFAVYFCQQFSSWPLTFGGGTKVEIKR
notes: Humanized anti-CD40 IgG with human IgG2 heavy chain constant region; also called anti-CD40 antibody HuCD40-C1H1-V2
B2: BSI038×S-004 (bispecific antibody, human IgG2, kappa)
heavy: EEELQVIQPDKSVSVAAGESAILHCTITSLIPVGPIQWFRGAGPARELIYNQREGHFPRVTTVSETTKRENMDFSISISNITPADAGTYYCVKFRKGSPDTEFKSGAGTELSVRAKPSAPVVSGPAARATPGGGGSGGGGSEVQLVESGGGLVKPGGSLRLSCAASGFTFSNYGISWVRQAPGKGLEWVSSISSGGDNTYYPDNVKGRFTISRDNAKNSLYLQMNSLRAEDTAVYYCARAGEKAMDYWGQGTLVTVSSASTKGPSVFPLAPCSRSTSESTAALGCLVKDYFPEPVTVSWNSGALTSGVHTFPAVLQSSGLYSLSSVVTVPSSNFGTQTYTCNVDHKPSNTKVDKTVERKCCVECPPCPAPPVAGPSVFLFPPKPKDTLMISRTPEVTCVVVDVSHEDPEVQFNWYVDGVEVHNAKTKPREEQFNSTFRVVSVLTVVHQDWLNGKEYKCKVSNKGLPAPIEKTISKTKGQPREPQVYTLPPSREEMTKNQVSLTCLVKGFYPSDIAVEWESNGQPENNYKTTPPMLDSDGSFFLYSKLTVDKSRWQQGNVFSCSVMHEALHNHYTQKSLSLSPGK
light: EIVLTQSPATLSLSPGERATLSCRASQTINNNLHWYQQKPGQAPRLLIKYASQSISGIPARFSGSGSGTDFTLTISSLEPEDFAVYFCQQFSSWPLTFGGGTKVEIKRTVAAPSVFIFPPSDEQLKSGTASVVCLLNNFYPREAKVQWKVDNALQSGNSQESVTEQDSKDSTYSLSSTLTLSKADYEKHKVYACEVTHQGLSSPVTKSFNRGEC
notes: SIRPαV2D1 variant M1 linked to N-terminus of each heavy chain of HuCD40-C1H1-V2 (human IgG2)
B3: BSI038×S-002 (bispecific antibody, human IgG2, kappa)
heavy: not shown
light: B2 light
notes: Wild-type SIRPαV2D1 linked to N-terminus of each heavy chain of HuCD40-C1H1-V2 (human IgG2)
B4: BSI038×S-005 (bispecific antibody, human IgG2, kappa)
heavy: B2 heavy with K68R, F103V
light: B2 light
notes: SIRPαV2D1 variant M2 linked to N-terminus of each heavy chain of HuCD40-C1H1-V2 (human IgG2)

Experiments:
[1] = molecular target: T2, full length human CD40 (uniprot #P25942-1) on 293T-CD40 cells (human, UniProt P25942 21-277); assay: FACS on 293T-CD40 cells, detection with goat anti-human IgG (Fab)-PE, MFI
T2 construct: whole, on cells
Protocol: Following an incubation of 40 minutes at 4° C. in dark, cells were washed three times and resuspended in FACS buffer. Fluorescence was measured using a Becton Dickinson FACS Canto II-HTS equipment and plotted against the recombinant fusion protein or controls concentration. Data was analyzed using Graphpad Prism and EC₅₀ values were reported.

[2] = molecular target: human CD40-Fc protein (prepared in-house) (human); assay: competitive ELISA: human CD40-Fc coated, blocked ligand biotin-labeled human CD40L-his, OD(450-630)
Protocol: (§1) The ability of the recombinant fusion proteins of the disclosure to block CD40-CD40L binding was measured in a competitive ELISA assay. Briefly, 100 μl/well human CD40-Fc proteins (prepared in-house with amino acid sequence of SEQ ID NO: 22) were coated on 96-well micro plates at 2 μg/mL in coating buffer (carbonate/bicarbonate buffer) and incubated overnight at 4° C. The next day, the plates were washed once with wash buffer (PBS+0.05% v/v Tween-20, PBST), and then blocked with 5% w/v non-fatty milk in PBST for 2 hours at 37° C. The plates were then washed 4 times using the wash buffer.
Serially diluted recombinant fusion proteins of the disclosure or controls (starting at 10 µg/mL with a 5-fold serial dilution) in PBST with 2.5% w/v non-fatty milk were added to the CD40-Fc bound plates, 100 μl per well, and incubated at 37° C. for 40 minutes. The plates were washed 4 times using wash buffer, and then added and incubated for 40 minutes at 37° C. with 100 μl/well 95 ng/mL biotin-labeled human CD40L-his protein (Cat #: 10239-H08E, Sino biological). The plates were washed again using wash buffer, added with 100 μl/well streptavidin conjugated HRP (1:10000 dilution in PBST buffer, Cat #: 016-030-084, Jackson ImmunoResearch) and incubated for 40 minutes at 37° C. The plates were washed again using wash buffer. […] The absorbance was read on a microplate reader using the dual wavelength mode with 450 nm for TMB and 630 nm as the reference wavelength, then the OD (450-630) values were plotted against the recombinant fusion protein or controls concentration. Data was analyzed using Graphpad Prism and IC₅₀ values were reported.

[3] = molecular target: T3, human CD47-his protein (Cat #: CD7-H5227, Acro biosystems) (human, UniProt Q08722 19-139); assay: dual-binding ELISA: human CD40-Fc coated, binder titrated, detected with human CD47-his and anti-His-HRP, OD450
T3 construct: Bought protein
Protocol: (§2) The binding activity of the recombinant fusion proteins to human CD40 and CD47 was also tested by dual-binding ELISA assay. Briefly, 100 μl/well human CD40-Fc proteins (Cat #: CD0-H5253, ACRO Biosystems) were coated on 96-well plates at 0.2 μg/mL in PBS and incubated overnight at 2-8° C. The next day, the plates were washed 3 times using wash buffer (PBS+0.05% v/v Tween-20, PBST), and then blocked with block buffer (PBS+1% w/v BSA) for 3 hours at 37° C. The plates were then washed 3 times using the wash buffer.
(§3) Serially diluted recombinant fusion proteins of the disclosure or controls (starting at 100 nM with a 6-fold serial dilution) in block buffer were added to the CD40-Fc bound plates, 100 μL per well, and incubated at 37° C. for 1 hour. The plates were washed 3 times using wash buffer, and then added and incubated for 1 hour at 37° C. with 100 μl/well 3 μg/mL human CD47-his protein (Cat #: CD7-H5227, ACRO Biosystems). The plates were washed again using wash buffer, added with 100 μl/well Anti-His tag Antibody (HRP) (1:2000 dilution in block buffer, Cat #: 105327-MM02T-H, Sino Biological) and incubated for 1 hour at 37° C. The plates were washed again using wash buffer. […] The absorbance was read using a microplate reader set to 450 nm, then the OD (450) values were plotted against the recombinant fusion protein or controls concentration. Data was analyzed using Graphpad Prism and EC₅₀ values were reported.

[4] = molecular target: T4, recombinant human CD40-his protein (Cat #: CD0-H5228, Acro biosystems) (human, UniProt P25942 21-193); assay: SPR (Biacore T200), sample on Protein A chip, antigen-his analyte, 1:1 fit
T4 construct: Bought protein
From the text: (§4) The purified recombinant fusion proteins were characterized for their binding affinity and binding kinetics by Biacore T200 system (GE healthcare, Pittsburgh, PA, USA). The anti-CD40 antibody HuCD40-C1H1-V2 (having the heavy chain and the light chain of SEQ ID NOs: 19 and 20), Selicrelumab (an agonistic anti-CD40 antibody, Roche Inc., prepared in-house with heavy and light chains of SEQ ID NOs: 27 and 28), and SIRPα-Fc fusion proteins, including SIRPαV2D1M1-Fc (IgG2) (SEQ ID NO: 21, X1=I, X2=R, X3=T, X4=K, X5=F), SIRPαV2D1M2-Fc (IgG2) (SEQ ID NO: 21, X1=I, X2=R, X3=T, X4=R, X5=V), SIRPα-isoform2-Fc (SEQ ID NO: 25) were used as positive controls.
(§5) A Protein A chip (Cat #: 29-1275-56, GE healthcare) was used for affinity determination. The recombinant fusion proteins of the disclosure and the positive controls each at the concentration of 2 μg/ml were respectively flowed onto the chip at a flow rate of 10 μl/min. Then, serially diluted recombinant human CD40-his proteins (Cat #: CD0-H5228, Acro biosystems), human CD47-his proteins (Cat #: CD7-H5227, Acro biosystems), cynomolgus CD40-his proteins (Biosion in house made, SEQ ID NO: 29) or cynomolgus CD47-his proteins (Cat #: CD7-C52H1, Acro biosystems), 2-fold dilution in HBS-EP⁺ buffer (provided by Biacore) with a starting concentration of 200 nM, were flowed onto the chip at a flow rate of 30 μl/min. The association kinetics was followed for 2 minutes and the dissociation kinetics was followed for 10 minutes. The association and dissociation curves were fit to a 1:1 Langmuir binding model using the Biacore evaluation software.

[5] = molecular target: T5, biotin-labeled human CD47-Fc (Biosion in house made) (human, biotin-labeled (sites not given)); assay: competitive ELISA: binder premixed with biotin-labeled human CD47-Fc, blocked partner coated human CD172a-Fc, OD(450-630)
T5 construct: also called Human CD47-Fc protein
Protocol: as §1, with “CD47-CD172a” for “CD40-CD40L”, “CD172a-Fc” for “CD40-Fc”, “24)” for “22)”, “using” for “using the”
Serially diluted recombinant fusion proteins of the disclosure or controls (starting at 100 nM with a 5-fold serial dilution) were mixed with 20 ng/ml biotin-labeled human CD47-Fc (Biosion in house made, SEQ ID NO: 23) in PBST with 2.5% w/v non-fatty milk. The mixtures were incubated at 37° C. for 40 minutes, and respectively added to the CD172a-Fc bound plates, 100 μl per well. The plates were incubated at 37° C. for 40 minutes, washed 4 times using wash buffer, added with 100 μl/well streptavidin conjugated HRP (1:10000 dilution in PBST buffer, Cat #: 016-030-084, Jackson ImmunoResearch), incubated for 40 minutes at 37° C., and washed again using wash buffer. […] The plates were read on a microplate reader using the dual wavelength mode with 450 nm for TMB and 630 nm as the reference wavelength, and the OD (450-630) values were plotted against the recombinant fusion protein or controls concentration. Data was analyzed using Graphpad Prism and IC₅₀ values were reported. Wild-type SIRPαV2D1-Fc (IgG2) (SEQ ID NO: 21, X1=V, X2=K, X3=S, X4=K, X5=F) was used as a positive control.

[6] = molecular target: human CD40-Fc protein (Cat #: CD0-H5253, ACRO Biosystems) (human, UniProt P25942 21-193); assay: dual-binding ELISA: human CD40-Fc coated, binder titrated, detected with human CD47-his and anti-His-HRP, OD450
Protocol: as §2, §3

[7] = molecular target: T3, human CD47-his protein (Cat #: …); assay: SPR (Biacore T200), sample on Protein A chip, antigen-his analyte, 1:1 fit
From the text: as §4, §5

[8] = molecular target: T6, cynomolgus CD47-his protein (Cat #: CD7-C52H1, Acro biosystems) (cynomolgus, UniProt A0A2K5X523 19-139); assay: as above
T6 construct: Bought protein; also called Cyno CD47-his
From the text: as §4, §5

[9] = molecular target: T1, cynomolgus CD40-his protein (Biosion in …); assay: as above
From the text: as §4, §5

Binder | EC50 [1] | IC50 [2] | binding result [3] | Kd [4] | koff [4] | kon [4] | IC50 [5] | EC50 [6] | Kd [7] | koff [7] | kon [7] | Kd [8] | koff [8] | kon [8] | Kd [9] | koff [9] | kon [9]
B1 | 1.06 nM | 1.01 nM | no binding (tested: 100 nM) | 1.05 nM | 0.00169 s⁻¹ | 1.62e+06 M⁻¹ s⁻¹ | – | – | – | – | – | – | – | – | – | – | –
B2 | – | – | – | 0.937 nM | 0.00164 s⁻¹ | 1.75e+06 M⁻¹ s⁻¹ | 2.74 nM | 0.213 nM | 0.987 nM | 0.000586 s⁻¹ | 594000 M⁻¹ s⁻¹ | 6.08 nM | 0.000576 s⁻¹ | 94800 M⁻¹ s⁻¹ | 2.16 nM | 0.00163 s⁻¹ | 753000 M⁻¹ s⁻¹
B3 | 1.19 nM | ~2.37 nM | – | 0.729 nM | 0.00184 s⁻¹ | 2.53e+06 M⁻¹ s⁻¹ | 76.8 nM | 0.689 nM | 6.31 nM | 0.00686 s⁻¹ | 1.09e+06 M⁻¹ s⁻¹ | – | – | – | – | – | –
B4 | – | – | – | 0.935 nM | 0.00165 s⁻¹ | 1.77e+06 M⁻¹ s⁻¹ | 2.5 nM | 0.197 nM | 1.15 nM | 0.000598 s⁻¹ | 518000 M⁻¹ s⁻¹ | 5.39 nM | 0.000495 s⁻¹ | 91800 M⁻¹ s⁻¹ | 2.2 nM | 0.00167 s⁻¹ | 759000 M⁻¹ s⁻¹
